{
  "source": "patent US20080182978A1",
  "about": "“ANTI-NGF ANTIBODIES AND METHODS USING SAME” (RINAT NEUROSCIENCE CORP, priority 2002, published 2008)",
  "key": {"human NGF": {"biological_target": "human NGF (Homo sapiens, UniProt P01138)", "sequence (P01138 122-241)": "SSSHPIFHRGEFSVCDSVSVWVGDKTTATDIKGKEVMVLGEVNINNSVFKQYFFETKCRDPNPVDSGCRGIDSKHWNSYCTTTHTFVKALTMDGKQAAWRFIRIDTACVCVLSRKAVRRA", "assay": "BIAcore affinity determination assay (kon, koff, KD of purified Fabs)", "assay_type": "binding", "conditions": "higher affinity than 911", "method": "Affinities of anti-NGF Fabs and monoclonal antibodies were determined using the BIAcore300™ surface plasmon resonance (SPR) system (BIAcore, INC, Piscaway N.J.). CM5 chips were activated with N-ethyl-N′-(3-dimethylaminopropyl)-carbodimide hydrochloride (EDC) and N-hydroxysuccinimide (NHS) according to the supplier's instructions. Human NGF was diluted into 10 mM sodium acetate pH 4.0 and injected over the activated chip at a concentration of 0.005 mg/mL. Using variable flow time across the individual chip channels, two ranges of antigen density were achieved: 100-200 response units (RU) for detailed kinetic studies and 500-600 RU for screening assays. The chip was blocked with ethanolamine. […] HBS-EP buffer (0.01M HEPES, pH 7.4, 0.15 NaCl, 3 mM EDTA, 0.005% Surfactant […]) was used as running buffer for all the BIAcore assays.\nSerial dilutions (0.1-10× estimated KD) of purified Fab samples were injected for 1 min at 100 μL/min and dissociation times of up to 2 h were allowed. The concentrations of the Fab proteins were determined by ELISA and/or SDS-PAGE electrophoresis using as a standard a Fab of known concentration (as determined by amino acid analysis). Kinetic association rates (kon) and dissociation rates (koff) were obtained simultaneously by fitting the data to a 1:1 Langmuir binding model (Karlsson, R. Roos, H. Fagerstam, L. Petersson, B. (1994). Methods Enzymology 6. 99-110) using the BIAevaluation program. Equilibrium dissociation constant (KD) values were calculated as koff/kon.\nThe binding affinities to human NGF of Fabs E3 and 3C were measured using BIAcore analysis according to the manufacturer's instructions and as described above, except that 100 RU NGF was used on chip to prevent a rebinding effect. Briefly, several concentrations of antibodies (Fabs) were injected for 2 minutes onto a CM5 chip with 100 RU of immobilized human NGF on it, and permitted to dissociate for 1800 seconds. Mouse antibody 911 (Fab) was analyzed as a control. Data was analyzed using BIAevaluation software following the manufacturer's instructions. E3 bound human NGF with a KD of approximately 0.07 nM (and with a kon of about 6.0e5 M-1s-1, and a koff of about 4.2e-5s-1)."}, "LIF": {"biological_target": "LIF (Homo sapiens, UniProt P15018)", "sequence (P15018 23-202, species assumed)": "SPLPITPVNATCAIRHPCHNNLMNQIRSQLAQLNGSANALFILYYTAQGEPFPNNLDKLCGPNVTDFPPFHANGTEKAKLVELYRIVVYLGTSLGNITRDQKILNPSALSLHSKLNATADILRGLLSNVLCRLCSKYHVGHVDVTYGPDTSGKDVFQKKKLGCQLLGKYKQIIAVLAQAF", "assay": "Mouse E17 nodose neuron survival assay, LIF", "assay_type": "cell-based", "conditions": "LIF 2.5 nM; antibody up to 200 nM; 48 hours", "method": "The ability of antibody E3 to specifically block NGF activity was also evaluated by measurement of the capacity of the antibody to inhibit survival of mouse nodose E17 neurons in the presence of saturating concentrations of BDNF or NT4/5. Survival of nodose neurons is supported by BDNF or NT4/5; therefore, survival of these neurons is a sensitive assay to evaluate the BDNF or NT4/5-blocking ability of the anti-NGF antagonist antibody.\nThe survival assay was conducted as follows: time mated pregnant Swiss Webster female mice were euthanised by CO2 inhalation. The uterine horns were removed and the embryos (at embryonic day 17 or 18) were extracted and decapitated. The trigeminal and nodose ganglia were dissected and cleaned. The ganglia were then trypsinised, mechanically dissociated and plated at a density of 100-300 cells per well in defined, serum-free medium in 4-well plates (Greiner) coated with poly-L-ornithine and laminin.\nE17 nodose neurons were grown either in the absence of added neurotrophic factors (negative control), or with saturating concentrations of BDNF (400 pM) (positive control) or NT4/5 (400 pM) or NGF unrelated growth factor […]. High concentrations of neurotrophins were used, as the goal of this experiment was to test specificity of the antibodies. […]"}, "[1]": {"test_system": "adjuvant-induced arthritis", "assay": "Dose response of E3 on vocalization intensity in arthritic rats (Example 9)", "assay_type": "in vivo, rat", "method": "The ability of E3 to produce reduction in pain in arthritic rats was further investigated by examining the dose response relationship between E3 administration and pain reduction. Rats were treated with adjuvant to induce arthritis as described above. Ten rats not injected with adjuvant were used as non-arthritic controls. Fourteen days after adjuvant injection, animals were qualified into the study based on the criteria stated above, randomized into eight groups of ten rats and tested for the intensity of their vocalization response. They were then dosed on day 14 with saline, or 0.003 mg/kg, 0.01 mg/kg, 0.03 mg/kg, 0.1 mg/kg, 0.3 mg/kg, 1 mg/kg or 5 mg/kg of E3 antibody as described above. Animals were tested for their vocalization response on days 16, 18, 20, and 24. Animals were redosed with saline or the same dose of E3 on day 18 after the vocalization testing. Animals were also weighed each day, starting at day 14. Thus, animals were dosed twice with a given dose of antibody or saline on days 14 and 18, and assessed for pain five times, on days 14, 16, 18, 20 and 24. Data are shown in Tables 20-22 and in FIGS. 20-22. The effect of treating animals with various doses of anti-NGF antibody E3 on pain induced vocalization (data shown in Table 20) was statistically analyzed by using two-way ANOVA to compare the results obtained pairwise between arthritic animals treated with vehicle with those treated with a given dose of antibody E3. […] Even at the lowest dose tested (0.003 mg/kg of E3), the difference in vocalization was significant (p<0.0001)."}},
  "note": "Entries after “also recorded” stand apart in the source; their conditions may differ.",
  "data": [
    {"molecule": "E3: humanized, affinity matured anti-NGF antagonist antibody; variable regions SEQ ID NO:1 and 2; human IgG2a (A330P331 to S330S331), kappa (antibody, V domains shown, human IgG2a constant (A330S/P331S) and kappa constant missing) VH: QVQLQESGPGLVKPSETLSLTCTVSGFSLIGYDLNWIRQPPGKGLEWIGIIWGDGTTDYNSAVKSRVTISKDTSKNQFSLKLSSVTAADTAVYYCARGGYWYATSYYFDYWGQGTLVTVS VL: DIQMTQSPSSLSASVGDRVTITCRASQSISNNLNWYQQKPGKAPKLLIYYTSRFHSGVPSRFSGSGSGTDFTFTISSLQPEDIATYYCQQEHTLPYTFGQGTKLEIKRT", "values": [
      {"measurement": "binding affinity to human NGF relative to parent mouse antibody 911", "setting": "human NGF", "value": "approximately 50 fold"},
      {"measurement": "survival of E17 nodose neurons promoted by LIF", "setting": "LIF", "value": "had no effect; also recorded: did not inhibit"},
      {"measurement": "effect on pain induced vocalization vs vehicle (two-way ANOVA)", "setting": "[1]; 0.003 to 5 mg/kg, p<0.0001", "value": "highly significant effect at all levels of E3 tested"},
      {"measurement": "Vocalization intensity", "setting": "[1]; E3 0.003 mg/kg on days 14+18, day 14", "value": 981.75, "unit": "mV"},
      {"measurement": "Vocalization intensity", "setting": "[1]; E3 0.003 mg/kg on days 14+18, day 16", "value": 825.60, "unit": "mV"},
      {"measurement": "Vocalization intensity", "setting": "[1]; E3 0.003 mg/kg on days 14+18, day 18", "value": 427.43, "unit": "mV"},
      {"measurement": "Vocalization intensity", "setting": "[1]; E3 0.003 mg/kg on days 14+18, day 20", "value": 448.00, "unit": "mV"},
      {"measurement": "Vocalization intensity", "setting": "[1]; E3 0.003 mg/kg on days 14+18, day 24", "value": 724.50, "unit": "mV"},
      {"measurement": "Vocalization intensity", "setting": "[1]; E3 0.01 mg/kg on days 14+18, day 14", "value": 1007.28, "unit": "mV"},
      {"measurement": "Vocalization intensity", "setting": "[1]; E3 0.01 mg/kg on days 14+18, day 16", "value": 576.88, "unit": "mV"},
      {"measurement": "Vocalization intensity", "setting": "[1]; E3 0.01 mg/kg on days 14+18, day 18", "value": 334.45, "unit": "mV"},
      {"measurement": "Vocalization intensity", "setting": "[1]; E3 0.01 mg/kg on days 14+18, day 20", "value": 313.13, "unit": "mV"},
      {"measurement": "Vocalization intensity", "setting": "[1]; E3 0.01 mg/kg on days 14+18, day 24", "value": 596.38, "unit": "mV"},
      {"measurement": "Vocalization intensity", "setting": "[1]; E3 0.03 mg/kg on days 14+18, day 14", "value": 963.18, "unit": "mV"},
      {"measurement": "Vocalization intensity", "setting": "[1]; E3 0.03 mg/kg on days 14+18, day 16", "value": 448.43, "unit": "mV"},
      {"measurement": "Vocalization intensity", "setting": "[1]; E3 0.03 mg/kg on days 14+18, day 18", "value": 292.52, "unit": "mV"},
      {"measurement": "Vocalization intensity", "setting": "[1]; E3 0.03 mg/kg on days 14+18, day 20", "value": 209.48, "unit": "mV"},
      {"measurement": "Vocalization intensity", "setting": "[1]; E3 0.03 mg/kg on days 14+18, day 24", "value": 513.60, "unit": "mV"},
      {"measurement": "Vocalization intensity", "setting": "[1]; E3 0.1 mg/kg on days 14+18, day 14", "value": 1159.30, "unit": "mV"},
      {"measurement": "Vocalization intensity", "setting": "[1]; E3 0.1 mg/kg on days 14+18, day 16", "value": 283.71, "unit": "mV"},
      {"measurement": "Vocalization intensity", "setting": "[1]; E3 0.1 mg/kg on days 14+18, day 18", "value": 262.96, "unit": "mV"},
      {"measurement": "Vocalization intensity", "setting": "[1]; E3 0.1 mg/kg on days 14+18, day 20", "value": 79.74, "unit": "mV"},
      {"measurement": "Vocalization intensity", "setting": "[1]; E3 0.1 mg/kg on days 14+18, day 24", "value": 432.45, "unit": "mV"},
      {"measurement": "Vocalization intensity", "setting": "[1]; E3 0.3 mg/kg on days 14+18, day 14", "value": 1191.58, "unit": "mV"},
      {"measurement": "Vocalization intensity", "setting": "[1]; E3 0.3 mg/kg on days 14+18, day 16", "value": 151.85, "unit": "mV"},
      {"measurement": "Vocalization intensity", "setting": "[1]; E3 0.3 mg/kg on days 14+18, day 18", "value": 194.19, "unit": "mV"},
      {"measurement": "Vocalization intensity", "setting": "[1]; E3 0.3 mg/kg on days 14+18, day 20", "value": 66.27, "unit": "mV"},
      {"measurement": "Vocalization intensity", "setting": "[1]; E3 0.3 mg/kg on days 14+18, day 24", "value": 176.32, "unit": "mV"},
      {"measurement": "Vocalization intensity", "setting": "[1]; E3 1.0 mg/kg on days 14+18, day 14", "value": 1067.00, "unit": "mV"},
      {"measurement": "Vocalization intensity", "setting": "[1]; E3 1.0 mg/kg on days 14+18, day 16", "value": 98.62, "unit": "mV"},
      {"measurement": "Vocalization intensity", "setting": "[1]; E3 1.0 mg/kg on days 14+18, day 18", "value": 174.13, "unit": "mV"},
      {"measurement": "Vocalization intensity", "setting": "[1]; E3 1.0 mg/kg on days 14+18, day 20", "value": 71.23, "unit": "mV"},
      {"measurement": "Vocalization intensity", "setting": "[1]; E3 1.0 mg/kg on days 14+18, day 24", "value": 19.21, "unit": "mV"},
      {"measurement": "fall of vocalization intensity", "setting": "[1]; E3 1 mg/kg, within two days (earliest time point tested)", "value": 90, "unit": "%"},
      {"measurement": "Vocalization intensity", "setting": "[1]; E3 5.0 mg/kg on days 14+18, day 14", "value": 896.25, "unit": "mV"},
      {"measurement": "Vocalization intensity", "setting": "[1]; E3 5.0 mg/kg on days 14+18, day 16", "value": 79.18, "unit": "mV"},
      {"measurement": "Vocalization intensity", "setting": "[1]; E3 5.0 mg/kg on days 14+18, day 18", "value": 200.42, "unit": "mV"},
      {"measurement": "Vocalization intensity", "setting": "[1]; E3 5.0 mg/kg on days 14+18, day 20", "value": 63.57, "unit": "mV"},
      {"measurement": "Vocalization intensity", "setting": "[1]; E3 5.0 mg/kg on days 14+18, day 24", "value": 12.35, "unit": "mV"},
      {"measurement": "pain relief at lowest dose", "setting": "[1]; doses as low as 0.003 mg/kg", "value": "at least partial pain relief"}
    ]}
  ]
}
